Experimental data taken from patent US20090291088A1, “THERAPEUTIC COMBINATIONS OF ANTI-IGF-1R ANTIBODIES AND OTHER COMPOUNDS” (Biogen Idec MA Inc., priority 2008, published 2009).

What was measured:
IGF-1R = target: T1, IGF-1R (Homo sapiens, UniProt P08069); assay: Ligand blocking assay (RIA): 125I-IGF-1 / 125I-IGF-2 binding to immobilized IGF-1R; settings: for blocking of IGF-1 and IGF-2 binding to IGF-1R: 100 nM-0.01 nM antibody, IGF-1R-Fc; for IGF Blocking IGF-1 / IGF Blocking IGF-2: Fabs; for IGF Blocking IGF-1: 125I-IGF-1; for IGF Blocking IGF-2: 125I-IGF-2
T1 construct: human IGF-1R(1-903)-Fc (denoted hIGF-1R-Fc, generated by Biogen Idec)
Excerpt: Ligand blocking assay (RIA). […] Insulin (Arg-Insulin, Cat #01-207) was purchased from Upstate Cell Signaling Solutions (Lake Placid, N.Y. (now part of Millipore, Concord, Mass. (USA)). ^125I-rhIGF-1 (Cat # IM172), ^125I-rhIGF-2 (Cat# IM238) and ^125I-rhInsulin (Cat# IM166) were purchased from Amersham Biosciences (Piscataway, N.J.). AffiPure goat anti-human IgG, Fcγ fragment specific antibodies (Cat #109-005-098, Jackson ImmunoResearch, West Grove, Pa.) was used for IGF-1R-Fc capture. As detection antibody, goat anti-mouse IgG HRP (Cat #1030-05, Southern Biotech Birmingham, Ala.) was used.
Human insulin receptor α-subunit specific antibodies, Clone 83-14, (Cat #AHR0221, Biosource International, Inc., Camarillo, Calif.) and the 47-9 (Cat #E55502M, Biodesign International, Saco, M E) were used as positive controls blocking of insulin-insulin receptor binding experiments. Recombinant IGF-1R-Fc fusion protein was produced at Biogen Idec (Cambridge, Mass.).
As isotype matched mouse negative control antibodies, 2B8 (murine α-CD20.1gG,) and 2B8 mkm.G2a (murine α-CD20 MAb, IgG2a, Biogen Idec, Lot #NB3304-87, San Diego, Calif.) were used. The negative control for Fabs was R001-1B provided by Christilyn Graff (Biogen Idec, Cambridge, Mass.). PBS used in buffers was from BioWhittaker (Cat. # 17-513F, Walkersville, Md.).
Recombinant human IGF-1R (Histidine tagged version) or IGF-1R-Fc was coated onto IMMULON2 HB (high binding) Removawell strips (Dynex Technologies, Inc., cat. #6302) diluted with carbonate coating buffer pH 9.5 to a concentration of 250 ng/well. After overnight incubation at 4° C., the wells were washed three times with washing buffer (0.05% Tween 20/PBS) then blocked with blocking buffer (3% BSA/PBS) for one hour at room temperature. The blocking buffer was removed and the wells washed three more times. Antibody, Fab, or ligand preparations were diluted to desired concentration with dilution buffer (1% BSA/0.05% Tween 20/PBS) and plated at 50 μl per well in duplicate. After 45 minutes at room temperature, 100,000 cpm of either [125I] rhIGF-1 or [125I] rhIGF-2 in 50 μl dilution buffer was added per well. This was incubated at room temperature for one more hour. The wells were washed again three more times and left liquid free after the last wash. The air-dried wells were counted with the Isodata Gamma Counter.
Alternatively, Fabs were evaluated by a modified capture assay, where the IGF-1R-Fc was captured using anti-human IgG immobilized to a plate. Immobilization was carried out by overnight incubation of goat anti-human IgG, Fcγ fragment specific antibody (200 ng/well) in carbonate coating buffer. The wells were washed, blocked and 250 ng of IGF-1R-Fc was added per well.
The ligand blocking ability of the anti-IGF-1R antibody was determined by a solid phase RIA capture method as described in Example 3. […] After 1 hour of incubation at room temperature, the wells were washed and counted for bound radioactivity by a Gamma Counter. An isotype matched negative antibody control, IDEC-151 (human G4), was used. Percent (%) inhibition was calculated as =[1−(Ave.CPM with Ab)/(Ave.CPM with buffer)]×100%.

IGF-1R phosphorylation = target: T2, IGF-1R phosphorylation (Homo sapiens, UniProt P08069); assay: Inhibition of IGF-1 and IGF-2 mediated IGF-1R phosphorylation in MCF-7 cells (ELISA); format: cell-based; settings: Fabs, MCF-7; for Inhibition of IGF-1R Phosphorylation IGF-1: IGF-1 stimulated; for Inhibition of IGF-1R Phosphorylation IGF-2: IGF-2 stimulated
T2 construct: wild type IGF-1R expressed on MCF-7 tumor cells; endogenous in cells; host or cells: MCF-7
Description: Cell lines: IGF1R expressing human breast carcinoma cell line MCF-7 (NCI) were maintained at 37° C. and 5% CO2 in MEM eagle (ATCC) containing 10% FBS, 1× non-essential amino acids, 2 mM L-glutamine, 1 mM sodium pyruvate and 1000 U/ml penicillin and streptomycin. Cells were sub-cultured twice weekly for maintenance and assay, and used with a maximum of 12 passages.
MCF-7 cells were plated in 2 ml growth media at 2×10^5 to 4.0×10^5 cells/well in Ploy-D-Lysine coated 12 well plates (BD Biosciences, #35-6470) and cultured at 37° C., 5% CO2. At 48 hours, media removed and cells serum starved overnight at 37° C., 5% CO2 Serum free media was removed and control or test antibodies at indicated concentration were added in 350 ul of fresh serum free media and incubated for 1 hour at room temperature, or alternately at 37° C. Fabs were tested at 200 nM, 20 nM and 2 nM concentration and the mAbs were tested at 67, 6.7 and 0.67 nM. The commercial anti-IGF-1R control antibody used was αIR3 (EMD biosciences, Oncogene Research products, #D27249). […] Ligand was incubated at […] for 37° C. antibody experiments. Cells were lysed in 1× cell lysis buffer (Cell Signal Technologies, #9803) with 1 mM PMSF for 1 hour at room temperature.
Cell lysates were added to ELISA plates pre-coated with IGF-1Rp antibody (Clone 1-2, Biosource International, #AHR0361) and incubated for 2 hours. Following which plates were washed and the plate bound phosphorylated receptor was detected with the biotin labeled anti-phosphotyrosine antibody 4G10 (Catalog #16-103, Upstate Cell Signaling Solutions (Lake Placid, N.Y. (now part of Millipore, Concord, Mass. (USA)) and streptavidin-HRP (BD Pharmingen, #554066). Assay is developed by addition of TMB substrate (Kierkegaard & Perry, #50-76-00) and color stopped by addition of […] (LabChem, Cat#LC25830-1). Optical density is measured at 450 nm using a Molecular Devices plate reader and percent inhibition over the ligand control is calculated for each antibody-ligand sample.
The effect of human anti-IGF-1R antibodies on IGF-1R signaling was evaluated using MCF-7 cells (human breast adenocarcinoma cells).

Molecule | blocking of IGF-1 and IGF-2 binding to IGF-1R (IGF-1R) | IGF Blocking IGF-1 (IGF-1R) | IGF Blocking IGF-2 (IGF-1R) | Inhibition of IGF-1R Phosphorylation IGF-1 (IGF-1R phosphorylation) | Inhibition of IGF-1R Phosphorylation IGF-2 (IGF-1R phosphorylation)
M14-C03.G4.P: full-length human IgG4.P version of Fab M14-C03 (antibody, V domains shown) VH: EVQLLESGGGLVQPGGSLRLSCAASGFTFSKYMMSWVRQAPGKGLEWVSYISPSGGLTWYADSVKGRFTISRDNSKNTLYLQMNSLRAEDTAVYYCARDGARGYGMDVWGQGTTVTVSS VL: DIQMTQSPATLSLSPGERATLSCRASQSVSSYLAWYQQKPGQAPRLLIYDASNRATGIPARFSGSGSGTDFTLTISSLEPEDFAVYYCQQRSNWPPEVTFGPGTKVDIK | blocked only IGF-2 binding | – | – | – | –
M12-E01.G4.P: full-length human IgG4.P version of Fab M12-E01 (antibody, V domains shown) VH: EVQLLESGGGLVQPGGSLRLSCAASGFTFSPYSMLWVRQAPGKGLEWVSSIGSSGGSTRYADSVKGRFTISRDNSKNTLYLQMNSLRAEDTAMYYCARVRGILHYDILIGRNLYYYYMDVWGKGTTVTVSS VL: QYELTQPPSVSEAPRQRVTISCSGSSSNIGNNAINWYQQLPGKPPKLLIYYDDLLPSGVSDRFSGSKSGTSGSLAISGLQSEDEADYYCAAWDDNLNGVIFGGGTKLTVL | block both IGF-1 and IGF-2 binding | – | – | – | –
Fab M14-B01: human anti-human IGF-1R Fab from phage display library; VH SEQ ID NO:20, VL SEQ ID NO:83 (antibody, V domains shown, Antibody variable heavy chain sequence; Antibody variable light chain sequence) VH: EVQLLESGGGLVQPGGSLRLSCAASGFTFSNYHMAWVRQAPGKGLEWVSVISPTGGRTTYADSVKGRFTISRDNSKNTLYLQMNSLRAEDTATYYCARAGYSYGYGYFDYWGQGTLVTVSS VL: DIQMTQFPATLSVSPGERATLSCRASQSVMRNLAWYQQKPGQPPRLLIYGASKRATGIPARFSGSGSGTAFTLTISNLEPEDFAVYYCHQRSTWPLGTFGPGTKLEAK | – | ++ (>30%@1ug/ml) | ++ (>30%@1ug/ml) | ++ (>30%@1ug/ml) | ++ (>30%@1ug/ml)
M12-G04.G4.P: full-length human IgG4.P version of Fab M12-G04 (antibody, V domains shown) VH: EVQLLESGGGLVQPGGSLRLSCAASGFTFSKYTMHWVRQAPGKGLEWVSSIVSSGGWTDYADSVKGRFTISRDNSKNTLYLQMNSLRAEDTAVYYCARDRSIAAAGTGWSVSFVDWFDPWGQGTLVTVSS VL: DIQMTQSPLSLSASVGDRVTITCRASQSINGYLNWYQQKPGKAPNLLIYATSSLQSGVPSRFSGSGSGTDFTLTISSLQPEDFATYYCQQSYSTPPYTFGQGTKLEIK | block both IGF-1 and IGF-2 binding | – | – | – | –
Fab M12-G04: human anti-human IGF-1R Fab from phage display library; VH SEQ ID NO:9, VL SEQ ID NO:73 (antibody, V domains shown, Antibody variable heavy chain sequence; Antibody variable light chain sequence) VH: EVQLLESGGGLVQPGGSLRLSCAASGFTFSKYTMHWVRQAPGKGLEWVSSIVSSGGWTDYADSVKGRFTISRDNSKNTLYLQMNSLRAEDTAVYYCARDRSIAAAGTGWSVSFVDWFDPWGQGTLVTVSS VL: DIQMTQSPLSLSASVGDRVTITCRASQSINGYLNWYQQKPGKAPNLLIYATSSLQSGVPSRFSGSGSGTDFTLTISSLQPEDFATYYCQQSYSTPPYTFGQGTKLEIK | – | + (>30%@10ug/ml) | + (>30%@10ug/ml) | + (>30%@10 ug/ml) | + (>30%@10 ug/ml)
